Legend:
[1] = molecular target: αHGF S3gG (HGF-specific 3-piece Surrobody); assay: capture ELISA: anti-VpreB1 IgG (2460B04 IgG1) coated, S3gG diluted without serum; the concentration is that of S3gG
[2] = molecular target: αHGF S3gG (HGF-specific 3-piece Surrobody); assay: capture ELISA: anti-VpreB1 IgG (2460B04 IgG1) coated, S3gG diluted in 50% mouse serum; the concentration is that of S3gG
[3] = molecular target: αHGF S3gG (HGF-specific 3-piece Surrobody); assay: capture ELISA: anti-VpreB1 IgG (2460B04 IgG1) coated, S3gG diluted in 50% human or 50% monkey serum; the concentration is that of S3gG
[4] = molecular target: αHGF S2gG (HGF-specific 2-piece Surrobody); assay: capture ELISA: anti-VpreB1 IgG (2460B04 IgG1) coated, S2gG diluted without serum, detected with HRP-goat anti-E tag antibody; the concentration is that of S2gG
[5] = molecular target: αHGF S2gG (HGF-specific 2-piece Surrobody); assay: capture ELISA: anti-VpreB1 IgG (2460B04 IgG1) coated, S2gG diluted in 50% mouse serum, detected with HRP-goat anti-E tag antibody; the concentration is that of S2gG
[6] = molecular target: αHGF S2gG (HGF-specific 2-piece Surrobody); assay: capture ELISA: anti-VpreB1 IgG (2460B04 IgG1) coated, S2gG diluted in 50% human or 50% monkey serum, detected with HRP-goat anti-E tag antibody; the concentration is that of S2gG

B1: anti-human VpreB1 IgG1 (2460B04 IgG1) (antibody, V domains shown)
VH: EVQLVESGGGLVKPGGSLRLSCAASGFTFSNFEMNWVRQAPGKGLEWVSGISSNGRYINYADSVKGRFTISRDNAKNSLYLQMNSLRAEDTAVYYCARVVDFDQDYNGFDYWGQGTLVTVSS
VL: DIQLTQSPSFLSASVGDRVTITCRASQGISTDLNWYQQKPGKAPKLLIYAASNLESGVPSRFSGSGSGTEFTLTISSLQPEDFATYYCQQSYNWPYTFGGGTKVEIK
modifications: Used unlabeled, biotin-, DIG- or HRP-labeled; the letters do not carry the labels.
[1]
  EC50 (read off the curve): 4 ng/mL
[2]
  EC50 (read off the curve): 20 ng/mL
[3]
  EC50 (read off the curve): 6 ng/mL
[4]
  EC50 (read off the curve): 4 ng/mL
[5]
  EC50 (read off the curve): 20 ng/mL
[6]
  EC50 (read off the curve): 6 ng/mL

From patent US20180265594A1
